The record followed here is US20190375826A1.

Assay [1] deals with DENV4 NS1 (nonstructural protein 1 of dengue virus type 4 strain H241) (dengue virus serotype 4, strain H241).
The target is the same in assay [2]. The source holds these as a separate data set.
Assay [3] has as its target DENV2 NS1 (nonstructural protein 1 of dengue virus type 2 strain 16681) (dengue virus serotype 2, strain 16681).
Assay [4] has the same target. The source holds these as a separate data set.
For assay [5], the target named is DENV3 NS1 (nonstructural protein 1 of dengue virus type 3 strain H87) (dengue virus serotype 3, strain H87).
For assay [6] the target is unchanged. This is another data set of the same source.

Like-named read-outs stand apart in the source and are kept apart here.

B1: mAb22-1.5 (antibody, V domains shown)
VH: EVQLQQSGPELVKPGASVKISCKASGYTFTDYNIHWVKQSPGKSLEWIGYIYPDNGDTGYNQIFKNKATLTVDTSSSAAYMELRSLTSEDSAVYYCVRRVLLDSWGQGTSVTVSS
VL: DIQMTQTTSSLSASLGDRVTISCSASQDINNFLNWYQQKPDGTIKLLIYYTSSLQSGVPSRFSGSGSGTDYSLTISNLEPEDIATYYCQQYSKLPRTFGGGTKLEIKR
On to B1, for which the minimum detectable concentration of NS1 proteins in assay [1] stood at 0.977 ng/mL; in assay [2], 62.5 ng/mL.

B2: mAb33-7.1 (antibody, V domains shown)
VH: EVQLQESGAELAKPGASVKMSCKASGYTFTSYWMHWVKQRPGQVLEWIGYINPNTGFTEYSQKFKDKATLTAVKSSSTAYIQLTSLTSDDSAVYYCARENYRYDGAMDYWGQGTSVTVSS
VL: DIVLTQSPALMAAFPGDRVTITCSVSSSVSSSNLHWYQQKSETSPKPWIYGTSTLASGVPVRFSGSGSGTSYSLTISSMEAEDAATYYCQQWSSYPLTFGAGTKLELKR
As for B2, the minimum detectable concentration of NS1 proteins in assay [3] worked out at 3.91 ng/mL; in assay [4], 62.5 ng/mL.

B3: mAb43-1.3 (antibody, V domains shown)
VH: GELQESGPQVVRPGTSVKISCKASGYSFSNYWMHWVKQRPGQGLEWIGVIDPSDSETRLNQKFKDKATLTVDKSSSTAYMQLSSPTSEDSAIYYCARSQFGLRFAYWGQGTLVTVSA
VL: DIVMTQSPSSMTVTAGEKVTMSCQSSQSLFNSGTQKNYLTWYQQKPGQPPKLLISWASTRDSGVPDRFTGSGSGTDFTLTINGVQAEDLAVYFCQNDYDSPYTFGGGTKLEIKR
As for B3, the results for the minimum detectable concentration of NS1 proteins in assay [5] and in assay [6] were 3.91 ng/mL and 62.5 ng/mL, respectively.
